Reference: the RNAGym collection of RNA variant scans (doi:10.1073/pnas.2313332121)

B1: TPR t1 (parent)
chain: GACCAAUCUGCCCUCAGAGCUCGAGAACAUCUUCGGAUGCAGAGGAGGCAGGCUUCGGUGGCGCGAUAGCGCCAACGUCCUCAACCUCCAAUGCAUCCCACCACAUGAUGAUGCCUGAAGAGCCUUGGUUUUUUG

Variants of: B1
Assay: polymerase ribozyme fitness, log enrichment relative to wild type (log ratio); higher = more active; in vitro selection for triplet polymerase activity
In short: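 Mutant libraries for each subunit of a heterodimeric triplet polymerase ribozyme were made by PCR and then transcribed. Each library underwent one round of in vitro selection in triplicate: annealing with a biotinylated primer, the partner subunit and triplets, frozen incubation at −7 °C, gel excision of extended constructs, streptavidin-bead capture and RT-PCR. Input and output libraries were Illumina-sequenced, and only genotypes with ≥10 input reads and ≥1 read per output were kept. Fitness is the logarithm, base 2, of genotype enrichment over wild-type enrichment, computed from inverse-variance-weighted replicate averages.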

Variant	polymerase ribozyme fitness (log ratio)
G58A U129C	-0.222
C56A U106A	-0.695
C56U G71U	-1.85
C56U G71A	-2.84
U55C C73A C76G A121U	0.355
G57A U78C	-1.27
C56A G71A C86A C104A	-6.75
C56G U59G C97A	-5.51
C56A G120U	-0.119
G57U A91G C114A U131A	-3.11
C56G C99A	-6.98
C56G G120C	0.755
G57A G122C C123A U130C	-1.47
G57C G61A C97G	-4.41
G58C A84U A100C	-1.55
G57U G61C U92C	-2.88
G57A C115G	-2.25
C56A G61C	-5.03
G57U G71C	-3.42
G57A G60A	-0.384
G57U G69U	-0.378
C56U G61C G117C	-4.62
C56U C82A G110C	-4.8
G57A C104A	-2.92

Variant	polymerase ribozyme fitness (log ratio)
G57A C104U	-0.961
G57U C62A G117U	-5.4
C56A C99A	-6.08
C56G G69U U81A C88A A100U	-2.69
C56G U129C	-0.877
G57U U125A	-0.415
C56A U96G G113A	-1.95
C56U C72U	-0.11
C56U C72A	-0.0735
C56A C72U C82U C85U	-1.52
G58C C82G U87G G93C C123A	-0.69
U55C G58A G60U U78A G110A	-1.19
G57C G61A G120A	0.501
C56U C88U	-0.153
U54G C86A U129G	-0.985
G58A C82G C88A G127U	-3.33
C56G U125A	-1.54
U55C A91U C94A	-2.3
G58A U96C	-0.271
U55A C62U C72U G120A	-0.106
C56G C64U C123U	0.0926
U55C G57U A66C	0.353
C56A C79G G93A	-2.59
G57U A74G	-0.836

Variant	polymerase ribozyme fitness (log ratio)
U54G C102U	-1.84
C56U G61U G93A A111U U116C	-4.78
G57C U81C	0.391
G58A G60A	-0.506
G58A A84U U133A	-0.154
C56G G58C	0.394
C56A C124A G127A	0.497
C56A C76G	0.138
U55A C64A C115G G128A	-6.49
C56A C72A	-0.579
C56G A74U	-0.327
U54G C101G C115G U116A	-6.37
U55C G71A A90G G113U	-2.42
U55G G69C A119U G127C	-1.89
U55A C88U	0.678
U55C U59G C114U	-1.28
G57U C85A	-2.14
U55C C88U	-0.394
C56A G107A	-3.75
G58C G71C C115A A118U	-1.75
C56U A90G U132A	0.308
G57U C101G U106A G122A	-0.938
U55C A66U A75U	-0.518
G57C G60U A100U U130G	-0.0419

Variant	polymerase ribozyme fitness (log ratio)
U55A C73A	0.5
U55C C62U C89A U109A	-6.44
C56A U78C C98A G122A C123U U132A	-5.25
C56A U67A	-6.26
G57C A91C	-0.77
C56A C79G C123G U133A	1.29
C56A G57U U78C G113C	-3.22
G57C G135U	-0.876
U54G C80U U133A	-0.863
C56U A103U	-4.81
C56U C80U C101U A121C	0.686
C56A G63U G77C C115G	-4.37
G57U G110U	-1.8
G57C C115A	0.0474
C56A G58C	-0.496
G57C C62A G122A	-3.31
U54G G60U	-3.4
C56A A90C	-1.57
U55G C56U C88G	-2.34
C56U C62G U112G	-5.4
G57A G69U	-0.426
G57U U81G	-0.222
U55G C88G	-0.483
U55C C123A	-0.354

Variant	polymerase ribozyme fitness (log ratio)
C56G U96G U125A	-1.29
G58A G71U C79A	-1.79
U55C C62U C98A	-6.18
G57C C88U A95U	-1.98
G57A A95C	-1.81
G57U C70G C124G	-2.06
U55G C72G A100C A111U	-4.23
G58C C72G A121U	1.78
C56A C70U U92G	-4.08
C56G C82U A91C U116C	-2.61
C56G A83C C101A C124G	0.428
C56A G69A C101U G110A	-5.53
G57U U132C	0.0378
C56A G61A U92C	-4.04
G58C C72U A119U	-0.967
C56G C79U	-0.342
C56U G93A C97U U129A	-2.25
G57C C99U A118G	-4.32
C56U A75U C86U	-0.18
U55G G117U	-2.73
C56U C76A	-2.9
U55G A100C	-0.346
U55C G71C C104U	-0.984
G58C G60U A118G	-0.24

Variant	polymerase ribozyme fitness (log ratio)
C56A C97U G113U	-4.2
G57C C62U	-0.549
C56A U112A	1.46
C56U C86U C124U U131A	1.32
C56A G127A	-1.47
G58C C102A	-2.66
C56U C114A G128A U133G	-4.81
G57C G110U G120U	-4.33
C56U C89A	-1.04
G57C G63A A100U U112C U125C	-0.23
C56U C73G U96A U106A	-3.7
C56U A111U	-1.9
U55C U106G	-1.88
G57A A84C	-1.76
C56A C115U U130A	-1.24
U54G G71U C79A	-5.67
U55G C70G	-2.34
G58C C124A	1.82
C56G A84G G120A	-0.771
C56G C94G U112A	-0.000426
U55A G61U	-0.0687
G57U C72G C115A U132C G135C	-4.51
G57C C97U G110U C115U	-6.98
U55C G57U A66C C123G U132A	0.759

Variant	polymerase ribozyme fitness (log ratio)
G57A C99U	-4.88
C56G A66G C94A	-2.49
C56G G57A G61C A118G	-4.8
C56U U67G G71A C80U G120C	-6.12
C56G A111C A119U	-1.72
G57C C97G	-4.65
G57C C97U	-0.494
C56U C101G	-2.07
C56A C80A	-2.22
G57U G93A G110C	-5.09
C56A C88U A95C A108G	-3.49
C56U C70U U96A	-2.06
C56G C89G A90C	-3.29
C56U C86U G117A	-1.37
G58C C80G C88A	-6.49
C56U G60U U87A	-3.76
C56G C73G	-2.66
U55C C56U G69C C85U	-4.97
C56A G60U	0.0473
C56A C64U	-0.751
C56U G113U G120A	-3.03
C56A G60A G69C	-3.21
U54G C82A A91C C115G	-4.39
